Test results published in patent US20130108636A1.

What was measured:
gp140Con-s [1] = assay: SPR (Biacore X100), gp140 amine-coupled on a CM5 chip, single-cycle, monovalent model
gp140Con-s [2] = assay: SPR; target not given, taken from Example 5

Row | Substance | Kd (gp140Con-s [1]) [nM] | koff (gp140Con-s [2]) [s⁻¹] | fold decrease of association rate constant compared to mD1 (gp140Con-s [2]) [fold] | kon (gp140Con-s [2]) [M⁻¹ s⁻¹]
1 | D1D2 (from UniProt P01730 26-203) (receptor) | 7.8 | 0.0013 |  | 
2 | mD1-CH2 (from UniProt P01730 26-124) |  | 0.0009 | 80 | 61000
